Assay results as given in patent publication US20250333501A1 (University of California, published 2025).
Numbering of substitutions follows the chain as printed.

T1: human CLDN6 fused to GFP, expressed on engineered HEK293T cells (HEK293T-CLDN6-mGFP) (human, UniProt P56747 1-220)
T1 construct: It calls residues 1-21 a signal peptide; also called Claudin-6; HEK293T-CLDN6-mGFP Artificial CLDN6+; not shown: mGFP tag
T1 sequence: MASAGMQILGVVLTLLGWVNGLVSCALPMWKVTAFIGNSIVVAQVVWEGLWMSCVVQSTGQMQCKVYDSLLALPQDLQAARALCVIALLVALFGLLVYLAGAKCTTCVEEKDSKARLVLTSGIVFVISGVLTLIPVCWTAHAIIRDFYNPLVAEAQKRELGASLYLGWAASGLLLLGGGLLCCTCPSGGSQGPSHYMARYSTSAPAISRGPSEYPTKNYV

T2: CLDN6 endogenously expressed by human cancer cell lines (ARK2, OVCA429) (human, UniProt P56747 1-220)
T2 construct: Untagged endogenous protein; also called Endogenous CLDN6+
T2 sequence: T1 sequence

B1: AB1-7 (antibody, V domains shown)
VH: QVQLVQSGAEVKKPGASVKMSCKASGYTFTTYTMHWVRQAPGQGLEWIGFINPSSGYTDYAQKFQGRVTLTADTSTSTVYMELSSLRSEDTAVYYCANGDYYVAYWGQGTLVTVSS
VL: DIQLTQSPSSLSASVGDRVTMTCTASSSVSSTYFHWYQQKPGKAPKLLIYSTSNLASGVPSRFSGSGSGTDYTLTISSMQPEDAATYYCHQYHRSPLTFGQGTKLEIK
notes: Humanized; also called Humanized AB 1-7
B2: AB1-4 (antibody, V domains shown)
VH: B1 VH with M20V, I48M, L70M
VL: B1 VL
notes: also called Humanized AB 1-4
B3: AB1-5 (antibody, V domains shown)
VH: B1 VH with M20V, I48M, L70M
VL: B1 VL with L48W
notes: also called Humanized AB 1-5
B4: AB1-8 (antibody, V domains shown)
VH: B1 VH
VL: B1 VL with L48W
notes: Humanized; also called Humanized AB 1-8
B5: AB1-11 (antibody, V domains shown)
VH: B1 VH with T74K
VL: B1 VL with L48W
notes: Humanized; also called Humanized AB 1-11
B6: AB1-6 (antibody, V domains shown)
VH: B1 VH
VL: B1 VL with L4M, M21I, M79L, A84F
notes: also called Humanized AB 1-6
B7: AB1-3 (antibody, V domains shown)
VH: B1 VH with M20V, I48M, L70M
VL: B1 VL with L4M, M21I, M79L, A84F
notes: also called Humanized AB 1-3
B8: AB3-chim (antibody, V domains shown)
VH: EVKLEESGGGLVQPGGSMKLSCVASGFTFSNYWMNWVRQSPEKGLEWVAQIRLKSDNYATHYAESVKGRFTISRDDSKRSVYLQMNNLRAEDTGTYYCNDGPPSGCWGQGTTLIVSS
VL: DIQMTQSPASLSASVGETVTITCRISENIYSYLAWYQQKQGKSPQLLVYNAKILVEGVPSRFSGSGSGTQFSLKINSLQPEDFGNYYCQHHYTVPWTFGGGTKLEIK
notes: 'chim' is the pre-humanized form (parental variable regions); also called pre-humanized (chimeric) form of AB3
B9: AB1-Chim (antibody, V domains shown)
VH: QVQLQQSAAELARPGASVKMSCKASGYTFTTYTMHWVKQRPGQGLEWIGFINPSSGYTDYNQKFKDRTTLTADKSSSTVYMQLSSLTSEDSAVYYCANGDYYVAYWGQGTLVTVSA
VL: QIVLTQSPAIMSASLGERVTMTCTASSSVSSTYFHWYQQKPGSSPKLWIYSTSNLASGVPRRFSGSASGTSYSLTISSMEAEDAATYYCHQYHRSPLTFGAGTKLELK
notes: 'chim' is the pre-humanized form (parental variable regions); also called pre-humanized (chimeric) form of AB1
B10: AB4-6 (antibody, V domains shown)
VH: QVQLVQSGAEVKKPGASVKMSCKASGYTFTSYTMHWIRQAPGQGLEWIGYINPSSTYTHYAQKFQGRATLTADKSTSTAYMELSSLRSEDTAVYYCSRGELGGFAYWGQGTLVTVSS
VL: DVVMTQSPLSLPVTLGQPASISCRSSQSLVHSDGNTYLNWYQQRPGQSPRLLIYKVSNRFSGVPDRFSGSGSGTDFTLKISRVEAEDVGVYYCSQSTHVPYTFGQGTKLEIK
notes: also called Humanized AB 4-6
B11: AB4-9 (antibody, V domains shown)
VH: B10 VH with A61I, Q62K, Q65K, G66D, K74T
VL: B10 VL
notes: Humanized; also called Humanized AB 4-9
B12: AB4-10 (antibody, V domains shown)
VH: B10 VH with L45Q, A61I, Q62K, Q65K, G66D, K74T
VL: B10 VL
notes: Humanized; also called Humanized AB 4-10
B13: AB4-8 (antibody, V domains shown)
VH: QVQLVQSGAEVKKPGASVKVSCKASGYTFTSYTMHWVRQAPGQGLEWMGYINPSSTYTHYIKKFKDRVTMTADTSTSTVYMELSSLRSEDTAVYYCSRGELGGFAYWGQGTLVTVSS
VL: B10 VL
notes: Humanized; also called Humanized AB 4-8
B14: AB4-12 (antibody, V domains shown)
VH: B10 VH with L45Q, A61I, Q62K, Q65K, G66D
VL: B10 VL
notes: Humanized; also called Humanized AB 4-12
B15: AB4-11 (antibody, V domains shown)
VH: B10 VH with A61I, Q62K, Q65K, G66D
VL: B10 VL
notes: Humanized; also called Humanized AB 4-11
B16: AB4-7 (antibody, V domains shown)
VH: B10 VH with L45Q
VL: B10 VL
notes: also called Humanized AB 4-7
B17: AB3-3 (antibody, V domains shown)
VH: EVQLLESGGGLVQPGGSMRLSCAASGFTFSNYWMNWVRQAPGKGLEWVAQIRLKSDNYATHYADSVKGRFTISRDDSKNTVYLQMNSLRAEDTGVYYCNDGPPSGCWGQGTLLTVSS
VL: DIQMTQSPSSLSASVGDRVTITCRISENIYSYLAWYQQKPGKAPKLLVYNAKILVEGVPSRFSGSGSGTDFTLTISSLQPEDFGTYYCQHHYTVPWTFGQGTKLEIK
notes: also called Humanized AB 3-3
B18: AB3-4 (antibody, V domains shown)
VH: B17 VH with C106Y
VL: B17 VL with V48I, G84A
notes: also called Humanized AB 3-4
B19: AB3-5 (antibody, V domains shown)
VH: B17 VH with C106Y
VL: B17 VL
notes: also called Humanized AB 3-5
B20: AB3-2 (antibody, V domains shown)
VH: B17 VH
VL: B17 VL with V48I, G84A
notes: also called Humanized AB 3-2
B21: AB3-7 (antibody, V domains shown)
VH: B17 VH with C106S
VL: B17 VL
notes: also called Humanized AB 3-7

What was measured:
[1] = target: T1, human CLDN6 fused to GFP, expressed on …; assay: FACS, 0.3 µg Ab, 293T clone with human CLDN6
Method in brief: (§1)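 Using a direct-binding flow cytometry method essentially as in the source, humanized antibodies were tested on engineered 293T clones expressing human CLDN6. Labelled antibody (Alexa Fluor 647 NHS ester) was added at 0.3 µg or 1.5 µg to EDTA-detached cells, which were kept on ice in the dark for 30 min, washed and read in channel FL4H of a BD Accuri C6. Fluorescence indicates relative antigen binding strength.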

[2] = target: T2, CLDN6 endogenously expressed by human …; assay: FACS, 0.3 µg Ab, ARK2 cells
Procedure: (§2) FACS assays were also carried out to determine relative antigen binding strengths of the humanized antibodies (at either 1.5 μg or 0.3 μg) for binding to CLDN6 as expressed by the indicated cancer cell lines. 2nd Ab only was used as a negative control.

[3] = target: T2, CLDN6 endogenously expressed by human …; assay: FACS, 1.5 µg Ab, OVCA429 cells
[4] = target: T1, human CLDN6 fused to GFP, expressed on …; assay: FACS, 1.5 µg Ab, 293T clone with human CLDN6
Method in brief: as §1

[5] = target: T2, CLDN6 endogenously expressed by human …; assay: FACS, 1.5 µg Ab, ARK2 cells
Procedure: as §2

Binder | FACS fluorescence [1] | FACS fluorescence [2] | FACS fluorescence [3] | FACS fluorescence [4] | FACS fluorescence [5]
B1 | 79200 | 4440 | 44700 | 207000 | 11200
B2 | 102000 | 3640 | 34600 | 197000 | 10000
B3 | 138000 | 7490 | 54300 | 213000 | 22400
B4 | 98800 | 5810 | 66000 | 210000 | 17600
B5 | 64900 | 53900 |  | 113000 | 97700
B6 | 120000 | 2820 | 29900 | 227000 | 7740
B7 | 142000 | 2830 | 27500 | 142000 | 10800
B8 | 267000 | 17100 | 138000 | 459000 | 29100
B9 | 312000 | 58800 | 177000 | 364000 | 51900
B10 | 10800 | 3300 |  | 29200 | 9840
B11 | 37200 | 3060 |  | 56900 | 7790
B12 | 50800 | 7210 |  | 77200 | 20200
B13 | 49300 | 3120 |  | 77600 | 7310
B14 | 71100 | 9690 |  | 86200 | 24200
B15 | 37800 | 6390 |  | 61200 | 9170
B16 | 19200 | 2770 |  | 33300 | 7560
B17 | 251000 | 1160 | 88700 | 340000 | 54900
B18 | 11600 | 1320 | 2960 | 55800 | 1460
B19 | 13300 | 1280 | 2950 | 48600 | 2910
B20 | 309000 | 14700 | 85900 | 396000 | 33600
B21 | 106000 | 36000 |  | 169000 | 90400
